Experimental data: US20260008856A1, “METHODS OF TREATING DISEASE USING ANTI-IL1RAP ANTIBODIES AND ANTIBODY DRUG CONJUGATES” (Bluefin Biomedicine, Inc., priority 2022, published 2026)

System: TARC level in PBMCs stimulated with HDM and IL-13
Assay: TARC level in PBMCs treated by HDM and IL-13
Type: cell-based, human
Conditions: HDM 10 ug/ml, IL-13 0.5 nM; tralokinumab 10 to 0.16 ug/ml; BFB759 1 ug/ml in combination
Description: 0.2 million PBMCs in 100 ul medium (RPMI1640, 10% heat-inactivated FBS) were added to each well of 96 well cell culture plate. BFB759 at multiple concentrations in 50 ul medium was added to the wells. The cells were incubated in the incubator for 45 min. Then, 50 ul HDM solution (final concentration 10 ug/ml) was added to the wells. After 7 days incubation, the supernatant was transferred to a new 96 well plate, and used in TARC ELISA right away, or frozen in −80 C freezer for ELISA later. For the combination studies of BFB759 with other drugs, the single agent or combination of drugs were added to the PBMCs, incubated for 45 min, then HDM solution, or HDM and IL-4 or IL-13 solution were added to the wells. The assay was incubated for 7 days, and the supernatant was harvested for TARC ELISA.
In the data shown in FIG. 16, HDM was used at 10 ug/ml, IL-13 was used at 0.5 nM, BFB759 was used at 1 ug/ml, tralokinumab was titrated from 10 ug/ml to 0.16 ug/ml (4 fold dilution, 4 series). Data shown are mean±s.d.

B1: tralokinumab: IL-13 neutralizing antibody, produced by Bluefin Biomedicine according to the published protein sequence (antibody, chains of the INN, looked up, V domains shown)
VH: QVQLVQSGAEVKKPGASVKVSCKASGYTFTNYGLSWVRQAPGQGLEWMGWISANNGDTNYGQEFQGRVTMTTDTSTSTAYMELRSLRSDDTAVYYCARDSSSSWARWFFDLWGRGTLVTVSS
VL: SYVLTQPPSVSVAPGKTARITCGGNIIGSKLVHWYQQKPGQAPVLVIYDDGDRPSGIPERFSGSNSGNTATLTISRVEAGDEADYYCQVWDTGSDPVVFGGGTKLTVL
- inhibition of TARC level in HDM and IL-13 stimulated cells: dose dependent inhibition
